Measurements reported in PMC7166197 (Molecular cell, 2020).

Biological target: RNA polymerase β subunit of Escherichia coli (Escherichia coli, UniProt P0A8V2 1-1342)
Assay: cryo-EM structure

Sequence of RNA polymerase β subunit of Escherichia coli (P0A8V2 whole entry): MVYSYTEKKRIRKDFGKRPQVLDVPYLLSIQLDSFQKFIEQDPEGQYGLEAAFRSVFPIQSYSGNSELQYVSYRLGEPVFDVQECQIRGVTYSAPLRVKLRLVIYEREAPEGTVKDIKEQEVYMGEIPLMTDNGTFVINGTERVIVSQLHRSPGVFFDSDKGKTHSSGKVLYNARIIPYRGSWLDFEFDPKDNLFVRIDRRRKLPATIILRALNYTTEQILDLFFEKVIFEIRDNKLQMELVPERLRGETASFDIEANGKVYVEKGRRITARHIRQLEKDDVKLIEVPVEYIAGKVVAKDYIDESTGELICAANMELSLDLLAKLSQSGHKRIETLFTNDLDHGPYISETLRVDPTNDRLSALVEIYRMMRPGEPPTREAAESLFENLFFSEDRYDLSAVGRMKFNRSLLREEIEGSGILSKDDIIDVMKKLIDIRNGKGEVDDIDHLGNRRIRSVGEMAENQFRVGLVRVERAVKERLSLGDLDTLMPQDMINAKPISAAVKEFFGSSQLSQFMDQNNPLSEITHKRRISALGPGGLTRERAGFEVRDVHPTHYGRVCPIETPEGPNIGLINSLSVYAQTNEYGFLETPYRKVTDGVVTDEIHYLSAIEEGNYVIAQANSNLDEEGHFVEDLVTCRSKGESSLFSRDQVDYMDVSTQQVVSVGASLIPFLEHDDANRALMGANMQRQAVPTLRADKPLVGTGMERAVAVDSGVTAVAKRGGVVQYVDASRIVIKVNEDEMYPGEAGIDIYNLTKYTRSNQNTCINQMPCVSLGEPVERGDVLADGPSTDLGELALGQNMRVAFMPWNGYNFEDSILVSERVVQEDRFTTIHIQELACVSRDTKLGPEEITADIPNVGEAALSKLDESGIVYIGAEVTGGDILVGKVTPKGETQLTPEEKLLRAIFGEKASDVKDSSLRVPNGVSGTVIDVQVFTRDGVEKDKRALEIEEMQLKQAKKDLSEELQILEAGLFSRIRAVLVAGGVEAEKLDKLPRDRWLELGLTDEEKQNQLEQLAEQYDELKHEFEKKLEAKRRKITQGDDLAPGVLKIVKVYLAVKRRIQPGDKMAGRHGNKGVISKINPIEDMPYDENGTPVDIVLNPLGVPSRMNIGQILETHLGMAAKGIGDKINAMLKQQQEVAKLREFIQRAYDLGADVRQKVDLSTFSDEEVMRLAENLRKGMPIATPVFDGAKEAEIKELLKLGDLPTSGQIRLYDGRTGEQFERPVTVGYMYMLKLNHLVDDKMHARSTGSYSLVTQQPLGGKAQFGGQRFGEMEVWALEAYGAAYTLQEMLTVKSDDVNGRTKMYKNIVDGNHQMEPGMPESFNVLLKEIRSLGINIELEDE

B1: TraR (natural protein, Escherichia coli)
chain: SDEADEAYSVTEQLTMTGINRIRQKINAHGIPVYLCEACGNPIPEARRKIFPGVTLCVECQAYQERQRKHYA
binding result: binds
